# Reference: the MegaScale stability set (Tsuboyama et al. 2023)
# B1: EEHEE_rd3_0130 (parent)
# chain: TKIIVNGKTFTAPTEEEAQKIAEKLAKKAGLTVHKKNGTFELK
# Variants of: B1
# Assay: folding stability dG (cDNA display proteolysis); higher = more stable
# Details: PBS, room temperature
row,Variant,folding stability dG
1,TKIIVNGKTFTAPTQEEAQKIAEKLAKKAGLTVHKKNGTFELK,0.576 kcal/mol
2,TKIIVNGKTFTAPTMEEAQKIAEKLAKKAGLTVHKKNGTFELK,0.994 kcal/mol
3,TKIIVNGKTFTAPTCEEAQKIAEKLAKKAGLTVHKKNGTFELK,1.07 kcal/mol
4,TKIIVNGKTFTAPTWEEAQKIAEKLAKKAGLTVHKKNGTFELK,0.965 kcal/mol
5,TKIIVNGKTFTAPTETEAQKIAEKLAKKAGLTVHKKNGTFELK,0.649 kcal/mol
6,TKIIVNGKTFTAPTESEAQKIAEKLAKKAGLTVHKKNGTFELK,0.797 kcal/mol
7,TKIIVNGKTFTAPTEEEAQKIAEKLAKKAGLTVHKKNATFELK,-0.621 kcal/mol
8,TKIIVNGKTFTAPTEEEAQKIAEKLAKKAGLTVHKKNFTFELK,0.05 kcal/mol
9,TKIIVNGKTFTAPTEEEAQKIAEKLAKIAGLTVHKKNGTFELK,0.992 kcal/mol
10,TKIIVNGKTFTAPTEEEAQKIAEKLAKHAGLTVHKKNGTFELK,0.757 kcal/mol
11,TKIIVNGKTFTATTEEEAQKIAEKLAKKAGLTVHKKNGTFELK,0.634 kcal/mol
12,TKIIVNGKTFTAPTEEEAQKIAEKFAKKAGLTVHKKNGTFELK,0.651 kcal/mol
13,TKIIVNGKTFTAPTEEEAQKIAEKAAKKAGLTVHKKNGTFELK,-0.68 kcal/mol
14,TKIIVNGKTFTAPTEEEAQKIAEKEAKKAGLTVHKKNGTFELK,-0.265 kcal/mol
15,TKIIVNGKTFTAPTEEEAQKIAEKCAKKAGLTVHKKNGTFELK,1.13 kcal/mol
16,TKIIVNGKTFTAPTEEEAQKIAEKLAKKAGLQVHKKNGTFELK,0.523 kcal/mol
17,TKIIVNGKTFTAPTEEEAQKIAEKLAKKAGLWVHKKNGTFELK,-0.409 kcal/mol
18,TKIIVNGKTFTAPTEEEAQKIAEKLAKKAGLCVHKKNGTFELK,1.05 kcal/mol
19,TKIIVNGKTFTAPTEEEAQKIAEKLVKKAGLTVHKKNGTFELK,-0.292 kcal/mol
20,TKIIVNGKTFTAPTEEEAQKIAEKLQKKAGLTVHKKNGTFELK,-0.508 kcal/mol

row,Variant,folding stability dG
1,TKIIVNGKTFTAPTEEEAQKIAEKLEKKAGLTVHKKNGTFELK,-0.437 kcal/mol
2,TKIIVNGKTFTAPTEEEAQKIAEKLMKKAGLTVHKKNGTFELK,-0.151 kcal/mol
3,TKIIVNGKTFTAPTEEEAQKIAEKLTKKAGLTVHKKNGTFELK,-0.552 kcal/mol
4,TKIIVNGKTFTAPTEEEAQKIAEKLAKKAGLTVHKKNGFFELK,1.21 kcal/mol
5,TKIIVNGKTFTAPTEEEAQKIAEKLAKKAGLTVHKKNGSFELK,1.24 kcal/mol
6,TKIIVNGKTFTAPTEEEAQKIAEKLAKKAGLTVHKKNGVFELK,1.39 kcal/mol
7,TKIIVNGKTFTAPTEEEAQKIAEKLADKAGLTVHKKNGTFELK,0.266 kcal/mol
8,TKIIVNGKTFTAPTEEEAQKIAEKLAIKAGLTVHKKNGTFELK,0.597 kcal/mol
9,TKIIVNGKTFTAPHEEEAQKIAEKLAKKAGLTVHKKNGTFELK,-0.337 kcal/mol
10,TKIIVNGKTFTAPVEEEAQKIAEKLAKKAGLTVHKKNGTFELK,-0.396 kcal/mol
11,TKIIVNGKTFTAPSEEEAQKIAEKLAKKAGLTVHKKNGTFELK,0.86 kcal/mol
12,TKIIVNGKTFTAPLEEEAQKIAEKLAKKAGLTVHKKNGTFELK,-0.412 kcal/mol
13,TKIIVNGKTFTAPREEEAQKIAEKLAKKAGLTVHKKNGTFELK,-0.419 kcal/mol
14,TKIIVNGKTFTAPTEEEAQKIREKLAKKAGLTVHKKNGTFELK,-0.631 kcal/mol
15,TKIIVNGKTFTAPTEEEAQKIFEKLAKKAGLTVHKKNGTFELK,0.168 kcal/mol
16,TKIIVNGKTFTIPTEEEAQKIAEKLAKKAGLTVHKKNGTFELK,1.26 kcal/mol
17,TKIIVNGKTFTGPTEEEAQKIAEKLAKKAGLTVHKKNGTFELK,0.091 kcal/mol
18,TKIIVNGDTFTAPTEEEAQKIAEKLAKKAGLTVHKKNGTFELK,-0.391 kcal/mol
19,TKIIVNGETFTAPTEEEAQKIAEKLAKKAGLTVHKKNGTFELK,0.053 kcal/mol
20,TKIIVNGGTFTAPTEEEAQKIAEKLAKKAGLTVHKKNGTFELK,-0.232 kcal/mol

row,Variant,folding stability dG
1,TKIIVNGKTFTAPTEEEAIKIAEKLAKKAGLTVHKKNGTFELK,0.665 kcal/mol
2,TKIIVNGKTFTAPTEEEADKIAEKLAKKAGLTVHKKNGTFELK,-0.048 kcal/mol
3,TKIIVNGKTFTAPTEEEAYKIAEKLAKKAGLTVHKKNGTFELK,1.03 kcal/mol
4,TKIIVNGKTFTAPTEEEARKIAEKLAKKAGLTVHKKNGTFELK,1.04 kcal/mol
5,TKIIVNGKTFTAPTEEEAQKIAEKLAKKALLTVHKKNGTFELK,-0.179 kcal/mol
6,TKIIVNGKTFTAPTEEEAQKIAEKLAKKATLTVHKKNGTFELK,0.204 kcal/mol
7,TKIIVNGKTFTAPTEEEAQKIAEKLAKKAPLTVHKKNGTFELK,-0.624 kcal/mol
8,TPIIVNGKTFTAPTEEEAQKIAEKLAKKAGLTVHKKNGTFELK,0.169 kcal/mol
9,TYIIVNGKTFTAPTEEEAQKIAEKLAKKAGLTVHKKNGTFELK,0.641 kcal/mol
10,TIIIVNGKTFTAPTEEEAQKIAEKLAKKAGLTVHKKNGTFELK,0.742 kcal/mol
11,TNIIVNGKTFTAPTEEEAQKIAEKLAKKAGLTVHKKNGTFELK,0.108 kcal/mol
12,TKIIVNGKKFTAPTEEEAQKIAEKLAKKAGLTVHKKNGTFELK,0.007 kcal/mol
13,TKIIVPGKTFTAPTEEEAQKIAEKLAKKAGLTVHKKNGTFELK,-0.076 kcal/mol
14,TKIIVMGKTFTAPTEEEAQKIAEKLAKKAGLTVHKKNGTFELK,0.863 kcal/mol
15,TKIIVSGKTFTAPTEEEAQKIAEKLAKKAGLTVHKKNGTFELK,0.36 kcal/mol
16,TKIIVKGKTFTAPTEEEAQKIAEKLAKKAGLTVHKKNGTFELK,0.266 kcal/mol
17,TKIIVNGKTFTAPTEEEAQKIAEKLAKKAGLTVHKKNGTFEMK,0 kcal/mol
18,TKIIVNGKTFTAPTEEEAQKIAEKLAKKAGLTVHKKNGTFERK,-0.081 kcal/mol
19,TKIIVNGKTFTAPTEEEAQKHAEKLAKKAGLTVHKKNGTFELK,-0.132 kcal/mol
